The values that follow come from article doi:10.1101/820647.

Holding throughout (assay): ITC
On the technique in general: Isothermal titration calorimetry measures the heat released or taken up as one component is titrated into another.

Experiment [1] addresses CDY1 chromodomain (aa 2-63) (human) (UniProt Q9Y6F8).
Experiment [2] addresses CDYL2 chromodomain (aa 2-62 or 2-64) (human) (UniProt Q8N8U2).
Experiment [3] has as its target CDYL1b chromodomain (aa 1-66) (human) (UniProt Q9Y232).

Chain of UniProt Q9Y6F8 (Q9Y6F8 2-63): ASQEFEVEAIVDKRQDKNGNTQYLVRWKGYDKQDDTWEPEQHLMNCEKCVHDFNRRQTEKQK
Chain of UniProt Q8N8U2 (Q8N8U2 2-64): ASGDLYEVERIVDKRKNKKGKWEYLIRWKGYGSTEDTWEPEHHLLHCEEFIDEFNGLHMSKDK

In experiment [1], H3K9me3 peptide yielded a Kd of 0.5 µM.

For the substance H3K27me3 peptide (canonical histone H3), in experiment [1], the Kd is 93 µM.

Turning to “H3tK27me3 peptide (testis-specific histone H3t)”, in experiment [1], the Kd worked out at 32 µM.

As to UNC4850 (peptide), the fold more potent than to CBX7 in experiment [2] and in experiment [3] was 10 fold throughout.

The Kd is the concentration at which binding is half-saturated. Read a high Kd as lower affinity.
